Consider two molecules from article PMC7748022.

Data set [1] deals with T1, GST-PIF4 (UniProt Q8W2F3 1-430).
T1 sequence: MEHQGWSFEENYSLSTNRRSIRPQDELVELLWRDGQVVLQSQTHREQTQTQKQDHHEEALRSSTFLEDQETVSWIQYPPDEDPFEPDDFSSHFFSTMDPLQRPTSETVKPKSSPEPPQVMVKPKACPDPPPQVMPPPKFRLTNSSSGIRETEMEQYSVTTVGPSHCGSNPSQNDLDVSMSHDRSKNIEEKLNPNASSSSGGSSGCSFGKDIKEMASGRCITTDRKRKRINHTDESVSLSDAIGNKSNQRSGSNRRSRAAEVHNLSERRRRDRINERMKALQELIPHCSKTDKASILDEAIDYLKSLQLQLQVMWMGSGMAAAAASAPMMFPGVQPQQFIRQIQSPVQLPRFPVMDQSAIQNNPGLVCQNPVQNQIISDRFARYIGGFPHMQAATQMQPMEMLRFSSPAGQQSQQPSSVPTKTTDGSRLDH
Description: EMSA.

Data set [2] deals with T1, GST-PIF4. Description: competition.

B1: PIF4 promoter probe (G-box) (dsDNA)
DNA 1: ATTCCAACACAATGTCCCAGAACTTGCCACGTGTCGTTCATTTCAAAAGATTGCAGTACT
DNA 2: AGTACTGCAATCTTTTGAAATGAACGACACGTGGCAAGTTCTGGGACATTGTGTTGGAAT
With B1, in the data set with GST-PIF4 [1], the binding result is given as “binds”.

B2: PIF4-MU probe (CACGTG to AACGTG) (dsDNA)
DNA 1: ATTCCAACACAATGTCCCAGAACTTGCAACGTGTCGTTCATTTCAAAAGATTGCAGTACT
DNA 2: AGTACTGCAATCTTTTGAAATGAACGACACGTTGCAAGTTCTGGGACATTGTGTTGGAAT
B2: the binding result with GST-PIF4 [2] is “no binding”.
